Measurements reported in paper PMC4174003 (2014).

Columns and labels:
[1] = target: PCSK9 (Homo sapiens, UniProt Q8NBP7); experiment: SPR
[2] = target: T1, PCSK9 (Mus musculus, UniProt Q80W65); experiment: SPR
T1 chain: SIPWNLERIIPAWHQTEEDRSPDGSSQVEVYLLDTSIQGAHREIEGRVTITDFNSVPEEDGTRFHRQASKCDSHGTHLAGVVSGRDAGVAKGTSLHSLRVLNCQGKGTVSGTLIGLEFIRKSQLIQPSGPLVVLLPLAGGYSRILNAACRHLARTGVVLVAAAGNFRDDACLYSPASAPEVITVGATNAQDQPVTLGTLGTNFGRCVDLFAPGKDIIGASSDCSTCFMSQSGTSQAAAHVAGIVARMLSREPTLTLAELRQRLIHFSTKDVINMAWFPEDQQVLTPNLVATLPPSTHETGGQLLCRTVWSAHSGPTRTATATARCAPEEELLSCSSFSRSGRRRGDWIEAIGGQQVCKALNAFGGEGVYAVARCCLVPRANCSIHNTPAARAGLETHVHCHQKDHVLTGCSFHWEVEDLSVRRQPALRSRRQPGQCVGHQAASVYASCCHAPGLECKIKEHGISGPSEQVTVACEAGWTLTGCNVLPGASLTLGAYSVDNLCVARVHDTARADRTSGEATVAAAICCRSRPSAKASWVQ

Chain of PCSK9 (Homo sapiens, UniProt Q8NBP7) (Q8NBP7 153-692): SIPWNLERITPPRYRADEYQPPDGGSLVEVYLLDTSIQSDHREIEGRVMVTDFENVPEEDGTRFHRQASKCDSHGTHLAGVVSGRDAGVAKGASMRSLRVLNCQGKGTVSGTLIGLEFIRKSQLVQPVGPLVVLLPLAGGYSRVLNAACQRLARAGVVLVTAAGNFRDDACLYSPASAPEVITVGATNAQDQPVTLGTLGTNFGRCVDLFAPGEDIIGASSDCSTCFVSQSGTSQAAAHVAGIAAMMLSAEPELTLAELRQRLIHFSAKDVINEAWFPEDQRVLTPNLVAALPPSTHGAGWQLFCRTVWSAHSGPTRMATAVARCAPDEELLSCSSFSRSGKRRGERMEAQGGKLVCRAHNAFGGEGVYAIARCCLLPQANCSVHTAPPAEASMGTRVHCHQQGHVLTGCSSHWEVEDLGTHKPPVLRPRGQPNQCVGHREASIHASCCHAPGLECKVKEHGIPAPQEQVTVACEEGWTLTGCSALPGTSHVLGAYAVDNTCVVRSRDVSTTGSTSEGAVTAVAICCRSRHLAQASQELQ

B1: alirocumab (antibody, V domains shown)
VH: EVQLVESGGGLVQPGGSLRLSCAASGFTFNNYAMNWVRQAPGKGLDWVSTISGSGGTTNYADSVKGRFIISRDSSKHTLYLQMNSLRAEDTAVYYCAKDSNWGNFDLWGRGTLVTVSS
VL: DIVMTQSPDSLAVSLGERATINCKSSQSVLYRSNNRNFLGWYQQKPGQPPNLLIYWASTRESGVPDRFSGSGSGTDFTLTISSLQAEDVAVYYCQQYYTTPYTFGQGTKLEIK
Kd [1]: 0.58 nM
Kd [2]: 2.6 nM
